The values that follow are results of earlier work, collected in patent US20090048308A1, “VLA-4 Antagonists” (priority 2005, published 2009).

Some results are limits rather than exact numbers.

This data set concerns the target T1, VLA-4 (Homo sapiens, UniProt P13612).
T1 construct: host or cells: VLA-4-bearing blood cells of trial subjects (inferred)
Conditions: early clinical trials.

In the case of “natalizumab: humanized monoclonal antibody against α4 (Tysabri®, Elan/Biogen)”, the receptor occupancy is greater than 80%.
